Results as given in paper PMC11616004, “Metabolite phosphatase from anhydrobiotic tardigrades” (The Febs Journal, 2024).

What was measured:
[1] = biological target: T1, DRB0118 (Deinococcus radiodurans, UniProt Q9RZK8); experiment: malachite green phosphate release; format: biochemical; conditions: 1 mM substrate, 20 mM Tris-HCl pH 8.0, 37 °C, 1 h; MBP fusion
T1 construct: gene DR_B0118; residues 58-337, signal peptide removed; N-terminal MBP fusion kept, 6xHis cut by TEV; codon-optimized, E. coli BL21(DE3); mainly dimer in solution
T1 sequence (Q9RZK8 58-337): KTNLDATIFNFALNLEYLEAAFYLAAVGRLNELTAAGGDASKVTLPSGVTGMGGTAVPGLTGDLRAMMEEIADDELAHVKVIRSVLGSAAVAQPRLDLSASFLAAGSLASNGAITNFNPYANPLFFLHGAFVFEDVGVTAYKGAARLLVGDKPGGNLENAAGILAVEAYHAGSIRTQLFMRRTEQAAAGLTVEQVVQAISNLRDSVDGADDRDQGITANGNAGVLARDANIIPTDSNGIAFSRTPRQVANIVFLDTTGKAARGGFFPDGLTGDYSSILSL

[2] = biological target: the molecule itself; experiment: crystal structure; sitting-drop vapor diffusion at 20 °C, RvFeMP‐1 at 10 mg/mL; conditions A (MES pH 6.0, PEG 20000), B (MgCl2, Tris–HCl pH 8.2, PEG 4000) and C (sodium thiocyanate, sodium acetate pH 4.0, PEG4000); dimer of two protomers
[3] = biological target: the molecule itself; experiment: native gel or EMSA; high‐resolution clear native PAGE of the purified sample (EzApply Native, EzStandard Native, EzRun ClearNative, ATTO)

O=[N+]([O-])c1ccc(OP(=O)(O)O)cc1 [pNPP, p-nitrophenyl phosphate]
activity (nmol/min/mg) [1]: can also function as a phosphatase and the activity toward pNPP was higher

B1: RvFeMP‐1 (Ramazzottius varieornatus Ferritin‐like metabolite phosphatase 1), residues 21–316 (enzyme)
chain: GGNRGMSRNQDAYAEKMDMTLDALNFLLGVEHLASAFYVQAVNNFTADDFKAAGLAQRDYDQFVGVRNNEVDHRDTLISVIKSLGGKPNPPCKYTFPVTDVASVLKVSRTLENADKPAYLGALRDIKSVELRTSVQGALSGDSAHAAFFAYLTGKAPAPGPVDGPLTQRHIATLAQDFIVSCPYPAPKPFPKLTLSPQSGPVGTVVATTCAQDVDTNGVMCAIISGNQGTLMQRPGQAKDGSGAATCTIPPGVKGILFIAWVRGRDVLNVGVDDSSTVCGPNYFLLSALGDAVPGV
notes: RvFeMP‐1 (RvY_06210 product) of Ramazzottius varieornatus strain YOKOZUNA‐1, residues 21–316, without the predicted 20-residue secretory signal peptide; After TEV cleavage one G of the recognition site probably stays at the N-terminus (surmised); also called RvY_06210 product; Tar‐fer; source: E. coli Shuffle T7, purified (HiTrap TALON, TEV protease, HisTrap flowthrough, Superdex 200 SEC); not …
binding result [2]: binds

B2: MBP‐DRB0118 (DRB0118 residues 58–337 fused to maltose‐binding protein) (enzyme, Deinococcus radiodurans R1)
chain: T1 sequence (Q9RZK8 58-337)
notes: DRB0118 of Deinococcus radiodurans R1, residues 58–337, without the signal peptide region; codon-optimised synthetic DNA; The MBP carrier (amplified from pMAL‐c5X) stands N-terminal of DRB0118 and was kept; After TEV cleavage one G of the site probably stays before MBP (surmised); source: E. coli BL21(DE3), purified (HiTrap TALON, TEV protease, HisTrap flowthrough, Superdex 200 SEC); not shown: …
stoichiometry N [3]: 2
